Assays:
[1] = molecular target: CXCR4 (human) (UniProt P61073); assay: cell-based or functional assay
[2] = molecular target: chemokine receptors on THP-1 cells; assay: biotinylated peptide on THP-1 cells, streptavidin-peroxidase, Scatchard; with and without 100 µM unlabeled peptide 3 (printed as affinity constant)
[3] = molecular target: chemokine receptors on the surface of Jurkat cells; assay: biotinylated peptide at 100 µM on 10^6 Jurkat cells, streptavidin-peroxidase, TMB
[4] = molecular target: chemokine receptors on THP-1 cells; assay: biotinylated peptide at 100 µM on 4×10^5 THP-1 cells, streptavidin-peroxidase, TMB
[5] = molecular target: chemokine receptors on the surface of Jurkat cells; assay: biotinylated peptide on cells, streptavidin-peroxidase

CXCR4 (human), sequence (P61073 whole entry): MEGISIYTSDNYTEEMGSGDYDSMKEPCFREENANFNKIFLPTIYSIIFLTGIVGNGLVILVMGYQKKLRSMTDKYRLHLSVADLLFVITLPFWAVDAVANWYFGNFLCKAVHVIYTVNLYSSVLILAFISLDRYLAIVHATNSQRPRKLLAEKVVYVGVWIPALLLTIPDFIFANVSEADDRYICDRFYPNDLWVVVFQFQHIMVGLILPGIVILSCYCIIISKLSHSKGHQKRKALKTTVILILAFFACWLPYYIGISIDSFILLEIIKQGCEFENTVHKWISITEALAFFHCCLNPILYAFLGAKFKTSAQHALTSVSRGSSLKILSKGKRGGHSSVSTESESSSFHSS

Row | Substance | percentage inhibition of SDF1α induced THP-1 migration at 100 µM [1] | Kd [2] | ΔA450 nm, alone [3] | ΔA450 nm, specific binding [3] | ΔA450 nm, alone [4] | ΔA450 nm, specific binding [4] | fold specific binding against THP-1 cells [5]
1 | KLK (peptide) | 87% | – | – | – | – | – | –
2 | N-terminal biotin-labeled peptide 2(1-15)[MCP-1] | – | 250 nM | – | – | – | – | –
3 | gp120:V3(BaL) (peptide) | – | – | 0.167 ΔA450 nm | < 0 ΔA450 nm | 0.642 ΔA450 nm | 0.535 ΔA450 nm | –
4 | gp120:V3(IIIb) (peptide) | – | – | 0.878 ΔA450 nm | 0.689 ΔA450 nm | 0.268 ΔA450 nm | 0.137 ΔA450 nm | 5 fold

Reference: patent publication US7238711
